From patent US20060008891A1, “Cathepsin G-related peptides as modulators of formylpeptide receptors (FPR)” (The Government of USA as repersented by the Secretary, …, priority 2004, published 2006) come the findings set out here.

For experiment [1], the target named is T1, FPR (Homo sapiens, UniProt P21462).
T1 construct: expressed in transfected cells; host or cells: Rat basophilic leukemia (RBL) cells, stably transfected (ETFR cells); gift of H. Ali and R. Snyderman, Duke University
T1 sequence (P21462 1-350): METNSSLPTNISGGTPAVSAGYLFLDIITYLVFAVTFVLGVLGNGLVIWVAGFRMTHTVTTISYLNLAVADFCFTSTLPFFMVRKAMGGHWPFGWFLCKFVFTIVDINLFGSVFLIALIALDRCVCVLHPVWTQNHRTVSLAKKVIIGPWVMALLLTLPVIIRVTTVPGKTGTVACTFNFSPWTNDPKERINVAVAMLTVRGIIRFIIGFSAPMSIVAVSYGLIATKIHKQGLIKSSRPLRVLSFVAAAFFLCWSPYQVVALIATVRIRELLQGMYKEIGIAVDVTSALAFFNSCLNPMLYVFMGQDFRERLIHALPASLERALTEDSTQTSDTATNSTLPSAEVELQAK
As to the kind of experiment: Calcium flux (Fura-2), ETFR cells. It is filed as cell-based. The following applies: CaG 10 μg/ml. The method, then: Monocytes or ETFR cells (10^7 cells/ml in RPMI 1640 containing 10% FBS) were loaded with 5 μM Fura-2 at room temperature (30 min for monocytes, 60 min for ETFR cells) in the dark. The cells were washed and resuspended (0.5×10^6 cells/ml) in saline buffer (138 mM NaCl, 6 mM KCl, 1 mM CaCl2, 10 mM HEPES, 5 mM glucose, and 1% BSA, pH 7.4). Two milliliters of the cell suspension were transferred to a quartz cuvette, which was placed in a luminescence spectrometer LS55 (Perkin-Elmer, Beaconsfield, UK). Calcium mobilization was measured by recording the ratio of the fluorescence excited at 340 and 380 nm in response to stimulants.

Experiment [2] deals with T1, FPR. As to the kind of experiment: Chemotaxis assay, RBL cells transfected with FPR (ETFR cells). It is filed as cell-based. The protocol: Human PBMC were isolated from leukopacks obtained through the courtesy of Transfusion Medicine Department, National Institutes of Health Clinical Center (Bethesda, Md.) by Ficoll-Hypaque density gradient centrifugation. Monocytes were purified from human PBMC by Percoll gradient to yield>90% pure preparations. […] H. Ali and R. Snyderman, Duke University (Durham, N.C.) and maintained in the presence of 0.8 mg/ml geneticin (G418, Life Technologies, Rockville, Md.) in DMEM supplemented with 10% FCS. B. Chemotaxis assay Migration of phagocytes and ETFR cells was assessed using a 48-well microchemotaxis chamber (Neuroprobe, Cabin John, Md.) as previously described (Hu et al. (2001) J Leukoc Biol 70 15512). Briefly, different concentrations of stimulants were placed in the wells of the lower compartment of the chamber, and 50 μl cells (1.5×10^6 cells/ml for monocyte and neutrophil, 1×10^6 ETFR cells/ml) were added to the wells of the upper compartment. The lower and upper compartments were separated by either a 5-μm (for monocyte) or a 10-μm pore size, collagen-coated (for ETFR cells) polycarbonate filter (Osmonics, Livermore, Calif.). After incubation at 37° C. in humidified air with 5% CO2 (60 min for neutrophils, 90 min for monocytes, 4.5 h for ETFR cells), the filter was removed and stained, and the cells migrating across the filter were counted with light microscopy. The results are presented as the mean number of cells (±SD) in three high power fields (HPFs). For analysis of cross-desensitization, cells were pretreated with indicated reagents for 1 h at 37° C. After thorough washing with cold medium (RPMI 1640, 1% BSA), the cells were resuspended and assayed. To measure the effect of various signaling inhibitors, unless otherwise indicated, the cells were pre-incubated at 37° C. for 60 min with the inhibitors, and were then added to the upper wells of the chemotaxis chamber.

The subject of experiment [3] is parental RBL cells. Kind of experiment: 125I-CaG binding to parental RBL cells. Set-up: species or system rat. The following applies: 25 nM 125I-CaG. The protocol: (§1) CaG was iodinated with a chrolamine-T method (Lofstrand Labs, Gaithersburg, Md.) with a specific activity of […] protein. Duplicate samples of ETFR cells or the parental RBL cells (2×10^6 cells in 200 μl RPMI 1640 containing 1% bovine serum albumin, 25 mM Hepes, and 0.05% NaN3) were incubated with 25 nM ^125I-CaG, in the presence of increasing concentrations of unlabeled ligands. After incubation and rotation at room temperature for 1 h, the cells were pelleted through a 10% sucrose/PBS cushion for 1 min at 10,000 g. The supernatant was removed and the radioactivity associated with cell pellets was measured in a γ counter (CliniGamma, Pharmacia Biotech Inc.). The binding data were analyzed with a Macintosh computer-aided program LIGAND (Dr. P. Munson, Division of Computer Research and Technology, NIH, Bethesda, Md.).

The subject of experiment [4] is PKCδ. Kind of experiment: PKCδ translocation in ETFR cells. It is filed as cell-based, rat. Particulars: 100 nM fMLF, 10 μg/ml CaG or PMA 500 nM, 37° C. 10 min. The method, then:
ETFR cells were seeded on coverslips and cultured overnight in DMEM containing 1% FCS at 37° C. After further culture in FCS-free DMEM for 3 h, cells were treated with stimulants for indicated time periods at 37° C. and were then fixed in 4% paraformaldehyde for 5 min at room temperature. […] The rabbit anti-PKCα/β, δ, and ξ, antibodies (1:1000 in DPBS) were applied separately for 1 h at room temperature. After three rinses with DPBS, the cells were stained with FITC-labeled goat anti-rabbit secondary antibody (PharMingen, 1:1000 in DPBS) for 1 h at room temperature. The coverslips were mounted with an anti-fade, water-based mounting medium with Propidium Iodide (PI) (Vector Lab, Burlingamem, Calif.) and analyzed under a laser scanning confocal fluorescence microscope (Zeiss LSM510 NLO Meta, Jena, Germany).

In experiment [5] the target is T1, FPR. Kind of experiment: Chemotaxis of HEK293 cells transfected with FPR. It is filed as cell-based. Particulars: chemotaxis index. The protocol:
Human PBMC were isolated from leukopacks obtained through the courtesy of Transfusion Medicine Department, National Institutes of Health Clinical Center (Bethesda, Md.) by Ficoll-Hypaque density gradient centrifugation. Monocytes were purified from human PBMC by Percoll gradient to yield>90% pure preparations. […] H. Ali and R. Snyderman, Duke University (Durham, N.C.) and maintained in the presence of 0.8 mg/ml geneticin (G418, Life Technologies, Rockville, Md.) in DMEM supplemented with 10% FCS. B. Chemotaxis assay Migration of phagocytes and ETFR cells was assessed using a 48-well microchemotaxis chamber (Neuroprobe, Cabin John, Md.) as previously described (Hu et al. (2001) J Leukoc Biol 70 15512). […] After incubation at 37° C. in humidified air with 5% CO2 (60 min for neutrophils, 90 min for monocytes, 4.5 h for ETFR cells), the filter was removed and stained, and the cells migrating across the filter were counted with light microscopy. […]
The chimeric receptor was stably transfected into HEK293 cells (a human embryo kidney cell line) and the chemotactic activity of CaG on the transfected cells was measured and compared to the chemotactic activity of CaG on […] cells transfected with wild type FPR, using the assay for chemotaxis described in Example IB. […]

For experiment [6], the target named is T1, FPR. As to the kind of experiment: 125I-CaG binding to ETFR cells. Particulars: LIGAND program. The method, then: as §1

Values joined by “and” are separate entries in the source; they are usually repeats but may differ in a detail not shown here. Equal values may be shown once. “Also recorded” adds a separate entry of the source.

Consider “CaG: Cathepsin G, serine protease purified from neutrophil granules, purchased from Athens Research & Technology”, for which the “Ca2+ flux” value in experiment [1] was “weak inducer of Ca^2+ flux; also recorded: induced a measurable level of Ca flux”. For the same substance, the “attenuation of Ca2+ response to fMLF” value in experiment [1] (0.1 nM fMLF) is reported as “attenuated cell response induced by low concentrations of fMLF; also recorded: significantly attenuated cell response to 0.1 nM fMLF”. For the same substance, in experiment [2] (ETFR cells), the “chemotactic response of ETFR cells” value was “marked and dose-dependent chemotactic response”; the “concentration range potently chemotactic” value fell in the range of 4 to 400 nM; the “optimal concentration to induce ETFR cell migration” value worked out at 5 µg/mL. Further, the “concentration required to elicit optimal cell migration” value in experiment [2] (FPR-expressing cells, cell type not specified) is 5-10 μg/ml and 200-400 nM. Further, the “specific binding of 125I-CaG to parental RBL cells” value in experiment [3] is reported as “no measurable levels of specific binding”. Also, in experiment [4], the “translocation of PKCδ” value is given as “did not induce translocation of PKCδ”. Also, the “chemotactic activity on FPR-transfected HEK293 cells” value in experiment [5] is reported as “chemotacic for FPR-transfected HEK 293 cells”. For the same substance, the “Kd of 125I-CaG binding” value in experiment [6] is reported as “approximately 2 μg/ml”.
